Experimental data as given in the nanobody polyreactivity screen of Harvey et al. (2022).

Assay: yeast display, Sf9 membrane polyspecificity reagent, FACS + sequencing; frameworks hold sequencing errors
How it was run: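 Nanobodies came from a synthetic yeast display library in Saccharomyces cerevisiae BJ5465, induced with galactose for 36–48 hours and stained for 1 hour at 4 °C with 10% biotinylated, detergent-solubilized Sf9 membrane reagent. Cells were enriched on streptavidin microbeads and then FACS-sorted, with low and high (top ~1%) gates set on anti-HA fluorescence for expression and streptavidin fluorescence for reagent binding. Each polyreactivity label reflects the gate a clone came from. Genes were amplified by colony PCR, sequenced by MiSeq 2 × 250 and filtered by CDR length.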

Row | Sequence | polyreactivity (PSR sort gate)
1 | QVQLVESGGGLVQAGGSLRLSCAASGSISSFYAMGWYRQAPGKERELVAGITSGGSTNYADSVKGRFTISRDNAKNTVYLQKNSLKPEDTAVYYCAAVYQGAGTHFDVFVKEFDYWGQGTQVTVSS | low polyreactivity
2 | QVQLVESGGGLVQAGGSLRLSCAASGSISTVYAMGWSRQAPGKERELVAAISWSGGSTYYADSVKGRFTISRDNAKNTDYLQMNSLKPEDTAFYYCAVRGLLYHSYYSVRYDYWGQGTQVTVSS | high polyreactivity
3 | QVQLVESGGGLVQAGGSLRLSCAASGSISTYNDSGWYRQAPGKEREFVASITLSTGRTDYADSVKGRFTISRDNAKNTVYLQMNSLKPEETAVYVCSVRDYARKYLTSFDYWGQGTQVTVSS | high polyreactivity
4 | QVQLVESGGGLVQAGGSLRLSCAASGSISVGYTMGWYRQAPGKEREFVAVITGTGGRTRYSDSVKGRFTISRDNAKNTVYLQMNSLKPEDTAGYYCAAKIRWRGALYDYWGQGTQVTVSS | high polyreactivity
5 | QVQLVESGGGLVQAGGSLRLSCAASGSISVRNVMGWYRQAPGKERELVATIRRTGGSTSYADSVKGRFTISRDNAKNTVYVQMNSLKPEDTAVYYCAAVGYTTYRRYDYWGQGTQVTVSS | low polyreactivity
6 | QVQLVESGGGLVQAGGSLRLSCAASGSISVRNVMGWYRQAPRKERELVATIRRTGGSTSYADSVKGRFTISRDNAKNTVYLQMNSLKPEDTAVYYCAAVGYTTYRRYDYWGQGTQVTVSS | low polyreactivity
7 | QVQLVESGGGLVQAGGSLRLSCAASGSISVSYMGWYRQAPGKERELVAAINWRGGSTYYADSVKGRFTISRDNAKNTVYLQMNSLKPEDTAVYYCAADYTVSYPYYEYYYWGQGTQVNVSS | high polyreactivity
8 | QVQLVESGGGLVQAGGSLRLSCAASGSISWKYAMGWSRQAPGKERELVAAISWSGSSTYYADSVKGRFTISRDNAKNTVYLQMNSLKPEDTAVYYCAADRVSRLTNRREYWGQGTQVTVSS | high polyreactivity
9 | QVQLVESGGGLVQAGGSLRLSCAASGSISYDYAMGWYRQAPGKERELVASITSRGGSTYADSVKGRFTISRDNAKNTVYLQMNSLKPEDTAVYYCAADAIPNLIFISLPFGLDYWGQGTQVTVSS | low polyreactivity
10 | QVQLVESGGGLVQAGGSLRLSCAASGSISYFNDMGWYRQAPGKERELVAAIRDSGGITYADSVKGRFTISRDNAKNTVYLQMNSLKPEDTAVYYCDKDAGLQKYHHDYWGQGTQVTVSS | low polyreactivity
11 | QVQLVESGGGLVQAGGSLRLSCAASGSISYQNAMGWYRQAPGKERELVAAISGDGDSTYYADSVKGRFTISRDNAKNTVYLQMNSLKPEDTAVYYCAAEPNVYFSVFVLFPSDYWGQGTQVTVSS | low polyreactivity
12 | QVQLVESGGGLVQAGGSLRLSCAASGSISYRYVMGWYRQAPGKERELVAAITTSGGSTYYADSVKGRFTISRDNAKNTVYLQKNSLKPEDTAVYYCAKVYQADQLRSHYDYWGQGTQVTVSS | high polyreactivity
13 | QVQLVESGGGLVQAGGSLRLSCAASGSISYYNAMGWYRQAPGKERELVATITDSGGSTYYADSVKGRFTISRDNAKNTVYLQMNSLKPEDTAVYYCAVDYTEWYSIYDYWGQGTEVTVSS | low polyreactivity
14 | QVQLVESGGGLVQAGGSLRLSCAASGSISYYYGMGWYRQAPGKERELVAAISTRGGSTYYADSVKGRFTISRDNAKNTVYLQMNSLKPEDTAVYYCAVRYYRPYSRFDYWGQGTQVTVSS | high polyreactivity
15 | QVQLVESGGGLVQAGGSLRLSCAASGSITVPYGMGWYRQAPGKERELVAAITGGSTNYADSVKGRFTISRDNAKNTVYLQMNSLKPEDTAVYYCAADWWALYTRYDYWGQGSQVTVSS | low polyreactivity
16 | QVQLVESGGGLVQAGGSLRLSCAASGSIVDFYAMGWYRQSPGTERELVAAIDDIDDSTYYADSVKGRFTISRDNAKNTVYLQMNSLKPEDTAVYYCAAELRPGYRSSYGLIYDYWGQGTQVTVSS | low polyreactivity
17 | QVQLVESGGGLVQAGGSLRLSCAASGSIVDTNAMGWYRQAPGKERELVAAITSTDSTNYADSVKGRFTISRDNAKNTVYLQMNSLKPEDTAVYYCNAALSQLRRGGLAMDYWGQGTQVTVSS | low polyreactivity
18 | QVQLVESGGGLVQAGGSLRLSCAASGSIVDWYVMGWYRQAPGKERELVAAITSTGSTYYADSVKGRFTISRDNAKNTVYLQMNSLKPEDTAVYYCATSFYVYPTYYIMDYWGQGTQVTVSS | low polyreactivity
19 | QVQLVESGGGLVQAGGSLRLSCAASGSIVGTYAMGWYRQAPGKERELVAAITWRGGNTYYADSVKGRFTISRDNAKNTVYLQMNSLKPEDTAVYYCAARGYKSSRRYYYWGQGTQVTVSS | high polyreactivity
20 | QVQLVESGGGLVQAGGSLRLSCAASGSIVGYNAMGWYRQAPGKEWEFVAAISWSGGRTYYADSVKGRFTISRDNAKNTVYLQMNILKPEDTAVYYSAADVFFYVYEAYLLYYWGQRTQVTVSS | low polyreactivity
21 | QVQLVESGGGLVQAGGSLRLSCAASGSIVLIYAMGWYRQAPGKERELVAAITGRGGRTYYADSVKGRFTISRDNAKNTVYLQLNSLKPEDTAVYYCAADSVYTLGLKYDYWGQGTQVTVSS | high polyreactivity
22 | QVQLVESGGGLVQAGGSLRLSCAASGSIVYRYAMGWYRPAPGKERELVAAISYSGGSTYYADSVKGRFTISRDNAKNTVYLQMNSLKPEDTAVYYCAKDYPPPISDYSRYYGYGYWGQGTQVTVSS | low polyreactivity

Row | Sequence | polyreactivity (PSR sort gate)
23 | QVQLVESGGGLVQAGGSLRLSCAASGSIVYYYAMGWYRQAPGKERELVAAITRSGGSTYYADSVKGRFTISRDNAKNTVYLQMNSLKPEDTSVYYCAKDAHAYRDLDYWGQGTQVTVSS | low polyreactivity
24 | QVQLVESGGGLVQAGGSLRLSCAASGSIYAVYAMGWYRPAPGKERELVATISGRGGSTYYADSVKGRFTISRDNAKNTVYLQMNSLKPEDTAVYYCNARVLFRRERMDSWGQGTQVTVSS | high polyreactivity
25 | QVQLVESGGGLVQAGGSLRLSCAASGSIYGGYAMGWYRQAPGKEREFVAAISRSGSSTYYADSVKGRFTISRDNAKNTVYLQMNSLKPEDTAVYSCAARYAGKAPGYRRYDYWGQGTQVTVSS | high polyreactivity
26 | QVQLVESGGGLVQAGGSLRLSCAASGSIYGLYAMGWSREAPGKEREVVATITESGGSTYYADSVKGRFTISRDNAKNTVYLQMKSLKPEDTAVYYCHSDEVSAQYDDWGQGTQVTVSS | low polyreactivity
27 | QVQLVESGGGLVQAGGSLRLSCAASGSIYGPYAMGWYRQAPGKERELVAAIAESSGSTYYADSVKGRFTISRDNAKNTVYLQMNRMKPEDTAVYYCAAEQITGWSWVWGSWYDYWGQGTQVTVSS | low polyreactivity
28 | QVQLVESGGGLVQAGGSLRLSCAASGSIYGTNAMGWYRKAPGKEREFVASITWGGGTYYADSVKGRFTISRDNAKNTVYFQMNSLKQEDSAVYYCATERVYTVYYDYDSWGQGTQVTVSS | low polyreactivity
29 | QVQLVESGGGLVQAGGSLRLSCAASGSIYIYYAMGWYRQAPVKERELVADITFSAGSNTYYADSVKGRFTISRDNAKNTVYLQMNSLKPEDTAVYYCNADRGFFGSITEYDYWGQGTQVTVSS | low polyreactivity
30 | QVQLVESGGGLVQAGGSLRLSCAASGSIYRYAMGSYRQAPGKERELVAAINFNGGRTYYADSVKGRFTISRDNAKNTVYLQMNSLKPEDTAVYYCAAVRSSNQGGFDYWGQGTQVTVSS | high polyreactivity
31 | QVQLVESGGGLVQAGGSLRLSCAASGSIYWLYAMGWYRQAPGKERELVAAIDSGDSTKNADSVKGRFTISRDNAKNTVYLQMNSLKPEDTAVYYCNASRRYHVRAPYDYWGQGTHVTVSS | low polyreactivity
32 | QVQLVESGGGLVQAGGSLRLSCAASGSIYWYAMGWYRQAPGKERQLVAAITKSGSSTYYADSVKGRFTISRDNAKNTVYLQMNSLIPEDTAVYYCAARRAVSGGVRTYYWGQGTQVTVSS | high polyreactivity
33 | QVQLVESGGGLVQAGGSLRLSCAASGSIYYNAMGWYRQAPGKERELVASISTGDSTDYADSVKGRFTISRDNAKNTVYLQMNSLKPEDTAVYYCAADTRLGYWDDYWGQGTQVTVSS | low polyreactivity
34 | QVQLVESGGGLVQAGGSLRLSCAASGSIYYSYAMGWYRQAPGKERELVARITKRGGRTYYADSVKGRFTISRDNAKNTVYLQMNSLKPEDTAVYYCAATTGHRTYRYYYWGQGTQVTVSS | high polyreactivity
35 | QVQLVESGGGLVQAGGSLRLSCAASGSIYYWYTMGWYRQAPGKERELVAAISLSDGRTYYADSVKGRFTISRDNAKNTVYLQMNSLKPEDTAVYYCAADYRDASGYYRYDYWGQGTQVTVSS | low polyreactivity
36 | QVQLVESGGGLVQAGGSLRLSCAASGSKFKRNAMVWYRQAPGKERELVASISSGGSTHYADSVNGRFTISRDNSKNTVYLEMNSLKPEDTAVYYCAATSIRWSVGSFRRDYWGQGTQVTVSS | low polyreactivity
37 | QVQLVESGGGLVQAGGSLRLSCAASGSLFEINAMGWYRPAPGKERELVAAITGSGGSTHYADSVKGRFTISRDNAKNTVYLQMNSLKPEDTAVYYCSAVPRYQYGYWGQGTQVTVSS | low polyreactivity
38 | QVQLVESGGGLVQAGGSLRLSCAASGSLFGVNAMGWYRQAPGKERELVASISLSDDRTYYADSVKGRFTISRDIAKNTDYLQMNSLKPEDTAVYYCARRLLWYWDVDPSLAEYDYWGQGTQVTVSS | low polyreactivity
39 | QVQLVESGGGLVQAGGSLRLSCAASGSLFIANAMGWYRQAPGKERELVAAISWSGGRTYYADSVKGRFTISRDNAKNTVYLQMNSLKPEDTAVYYCAAEWEFYYEYDYWGQGTQVTVSS | high polyreactivity
40 | QVQLVESGGGLVQAGGSLRLSCAASGSLFPLYAMGWYRQAPGKERELVAAITWRGGSTYYADSVKGRFTISRDNAKNTVYLQMNSLKPEDTAVYYCNRDLVPRFDYWGQGTQVTVSS | low polyreactivity
41 | QVQLVESGGGLVQAGGSLRLSCAASGSLFSGNAMGWYRQAPGKEREFVAAISRSGSSTYYADSVKGRFTISRDNAKNPVYLQMNSLKPEDTAVYYCASRFGDMGYWGQGTQVTVSS | high polyreactivity
42 | QVQLVESGGGLVQAGGSLRLSCAASGSMFTNYAMGWYRQAPGQERELVAAISVGGGRTYYADSVKGRFTISRDNAQNTVYVQLNSLKPEDTAVYYCAARYPFGSLGRYGYWGQGTQVTVSS | high polyreactivity
43 | QVQLVESGGGLVQAGGSLRLSCAASGSMLKSYAMGWYIQAPGKESELVAAITYRDGSTYYADSVKGRFTISRDNAKNTVYLQMNSLKPEDTAVYYCNARWARGRYAQYGGLDREYDYWGQGTQVTVSS | high polyreactivity
